In the supplement of paper PMC11246515:
± gives the standard deviation of the averaged measurements.

Assay: total protein half-life in vivo (active degradation + dilution); higher = more stable protein
[1] = E. coli NCM3722 delta-clpP delta-lon delta-hslV, growth: N-lim chemostat, doubling time 6 h
[2] = E. coli NCM3722 delta-clpP, growth: N-lim chemostat, doubling time 6 h
[3] = E. coli NCM3722 delta-smpB, growth: N-lim chemostat, doubling time 6 h
[4] = wild type E. coli NCM3722, growth: C-lim chemostat, doubling time 12 h
[5] = wild type E. coli NCM3722, growth: N-lim chemostat, doubling time 6 h
[6] = wild type E. coli NCM3722, growth: P-lim chemostat, doubling time 12 h
[7] = E. coli NCM3722 delta-hslV, growth: N-lim chemostat, doubling time 6 h
[8] = E. coli NCM3722 delta-lon, growth: N-lim chemostat, doubling time 6 h
[9] = wild type E. coli NCM3722, growth: C-lim chemostat, doubling time 3 h
[10] = wild type E. coli NCM3722, growth: C-lim chemostat, doubling time 6 h
[11] = wild type E. coli NCM3722, growth: N-lim chemostat, doubling time 12 h
[12] = wild type E. coli NCM3722, growth: P-lim chemostat, doubling time 6 h

| Sequence | total protein half-life in vivo [1] | total protein half-life in vivo [2] | total protein half-life in vivo [3] | total protein half-life in vivo [4] | total protein half-life in vivo [5] | total protein half-life in vivo [6] | total protein half-life in vivo [7] | total protein half-life in vivo [8] | total protein half-life in vivo [9] | total protein half-life in vivo [10] | total protein half-life in vivo [11] | total protein half-life in vivo [12] |
| --- | --- | --- | --- | --- | --- | --- | --- | --- | --- | --- | --- | --- |
| MRFIIRTVMLIALVWIGLLLSGYGVLIGSKENAAGLGLQCTYLTARGTSTVQYLHTKSGFLGITDCPLLRKSNIVVDNG [Q2MB16] | 7.32 ± 0.77 h | 6.25 h | 6.03 ± 1.1 h | 14 ± 1.4 h | 5.45 h | 14 ± 2.2 h |  |  |  |  |  |  |
| MKPVTLYDVAEYAGVSYQTVSRVVNQASHVSAKTREKVEAAMAELNYIPNRVAQQLAGKQSLLIGVATSSLALHAPSQIVAAIKSRADQLGASVVVSMVERSGVEACKAAVHNLLAQRVSGLIINYPLDDQDAIAVEAACTNVPALFLDVSDQTPINSIIFSHEDGTRLGVEHLVALGHQQIALLAGPLSSVSARLRLAGWHKYLTRNQIQPIAEREGDWSAMSGFQQTMQMLNEGIVPTAMLVANDQMALGAMRAITESGLRVGADISVVGYDDTEDSSCYIPPLTTIKQDFRLLGQTSVDRLLQLSQGQAVKGNQLLPVSLVKRKTTLAPNTQTASPRALADSLMQLARQVSRLESGQ | 5.83 ± 0.72 h | 5.64 ± 0.41 h | 4.13 ± 0.042 h | 7.63 ± 1.8 h | 5.01 ± 0.34 h | 10.5 ± 0.49 h | 4.55 ± 0.067 h | 4.85 ± 0.15 h | 2.96 ± 0.24 h | 5.81 ± 0.66 h | 7.759 ± 0.077 h | 4.77 ± 0.2 h |
| MKICLIDETGTGDGALSVLAARWGLEHDEDNLMALVLTPEHLELRKRDEPKLGGIFVDFVGGAMAHRRKFGGGRGEAVAKAVGIKGDYLPDVVDATAGLGRDAFVLASVGCRVRMLERNPVVAALLDDGLARGYADAEIGGWLQERLQLIHASSLTALTDITPRPQVVYLDPMFPHKQKSALVKKEMRVFQSLVGPDLDADGLLEPARLLATKRVVVKRPDYAPPLANVATPNAVVTKGHRFDIYAGTPV | 6.34 ± 1.2 h | 5.05 ± 0.67 h | 5.27 ± 0.32 h | 11.1 ± 1 h | 5.3 ± 0.28 h | 12.9 ± 0.86 h | 5.29 h | 5.92 ± 0.037 h |  |  | 11.5 ± 1.8 h |  |
| MKKKILAFGLISALFCSTPAMADMNRTTKGALLGAGVGLLTGNGVNGVLKGAAVGAGVGAVTEKGRDGKNARKGAKVGAAVGAVTGVLTGNGLEGAIKGAVIGGTGGAILGKMK [Q7DFV3] |  |  | 1.39 h |  | 1.78 ± 0.36 h | 5.14 ± 0.75 h | 1.46 ± 0.28 h |  | 1.42 ± 0.11 h | 1.67 h | 1.87 h | 2.752 ± 0.007 h |
| MHVKYLAGIVGAALLMAGCSSSNELSAAGQSVRIVDEQPGAECQLIGTATGKQSNWLSGQHGEEGGSMRGAANDLRNQAAAMGGNVIYGISSPSQGMLSSFVPTDSQIIGQVYKCPN [P0AF70] | 6.05 h | 6.18 ± 0.3 h |  | 10.7 ± 0.76 h | 7.12 h | 11.7 ± 0.94 h | 6.86 h | 6.39 h | 3.19 ± 0.049 h | 5.95 ± 0.4 h | 12.9 ± 0.69 h | 6.01 ± 0.24 h |
| MKIHTTEALMKAEISRRSLMKTSALGSLALASSAFTLPFSQMVRAAEAPVEEKAVWSSCTVNCGSRCLLRLHVKDDTVYWVESDTTGDDVYGNHQVRACLRGRSIRRRMNHPDRLKYPMKRVGKRGEGKFERISWDEALDTISDNLRRILKDYGNEAVHVLYGTGVDGGNITNSNVPYRLMNSCGGFLSRYGSYSTAQISAAMSYMFGANDGNSPDDIANTKLVVMFGNNPAETRMSGGGVTYYVEQARERSNARMIVIDPRYNDTAAGREDEWLPIRPGTDGALACAIAWVLITENMVDQPFLDKYCVGYDEKTLPANAPRNAHYKAYILGEGPDGIAKTPEWAAKITSIPAEKIIQLAREIGSAKPAYICQGWGPQRHSNGEQTSRAIAMLSVLTGNVGINGGNSGVREGSWDLGVEWFPMLENPVKTQISVFTWTDAIDHGTEMTATRDGVRGKEKLDVPIKFLWCYASNTLINQHGDINHTHEVLQDDSKCEMIVGIDHFMTASAKYCDILLPDLMPTEQEDLISHESAGNMGYVILAQPATSAKFERKPIYWMLSEVAKRLGPDVYQTFTEGRSQHEWIKYLHAKTKERNPEMPDYEEMKTTGIFKKKCPEEHYVAFRAFREDPQANPLKTPSGKIEIYSERLAKIADTWELKKDEIIHPLPAYTPGFDGWDDPLRKTYPLQLTGFHYKARTHSSYGNIDVLQQACPQEVWINPIDAQARGIRHGDTVRVFNNNGEMLIAAKVTPRILPGVTAIGQGAWLKADMFGDRVDHGGSINILTSHRPSPLAKGNPSHSNLVQIEKV | 6.47 ± 2.1 h |  | 4.94 h | 13.9 h |  | 3.5 h |  |  |  | 4.9 h | 3.57 h |  |
| MGKSIVVVSAVNFTTGGPFTILKKFLAATNNKENVSFIALVHSAKELKESYPWVKFIEFPEVKGSWLKRLHFEYVVCKKLSKELNATHWICLHDITANVVTKKRYVYCHNPAPFYKGILFREILMEPSFFLFKMLYGLIYKINIKKNTAVFVQQFWMKEKFIKKYSINNIIVSRPEIKLSDKSQLTDDDSQFKNNPSELTIFYPAVPRVFKNYELIISAARKLKEQSNIKFLLTISGTENAYAKYIISLAEGLDNVHFLGYLDKEKIDHCYNISDIVCFPSRLETWGLPLSEAKERGKWVLASDFPFTRETLGSYEKKAFFDSNNDDMLVKLIIDFKKGNLKKDISDANFIYRNENVLVGFDELVNFITEEH | 5.98 h | > 8 h | 5.6 ± 0.084 h | 10.5 h | 5.39 ± 0.26 h | 14.9 ± 1.6 h | > 8 h | 7.3 ± 0.89 h |  | 5.53 h | 12.4 ± 0.87 h | 6.42 h |
| MKAARQQAIVDLLLNHTSLTTEALSEQLKVSKETIRRDLNELQTQGKILRNHGRAKYIHRQNQDSGDPFHIRLKSHYAHKADIAREALAWIEEGMVIALDASSTCWYLARQLPDINIQVFTNSHPICHELGKRERIQLISSGGTLERKYGCYVNPSLISQLKSLEIDLFIFSCEGIDSSGALWDSNAINADYKSMLLKRAAQSLLLIDKSKFNRSGEARIGHLDEVTHIISDERQVATSLVTA [P0ACK8] | 4.82 ± 0.058 h | 2.74 ± 0.14 h | 0.618 h | 1.36 ± 0.31 h | 1.3 h |  |  |  | 0.695 ± 0.079 h | 1.09 h | 0.218 h |  |
| MVKLPPLSLYIHIPWCVQKCPYCDFNSHALKGEVPHDDYVQHLLNDLDNDVAYAQGREVKTIFIGGGTPSLLSGPAMQTLLDGVRARLPLAADAEITMEANPGTVEADRFVDYQRAGVNRISIGVQSFSEEKLKRLGRIHGPQEAKRAAKLASGLGLRSFNLDLMHGLPDQSLEEALGDLRQAIELNPPHLSWYQLTIEPNTLFGSRPPVLPDDDALWDIFEQGHQLLTAAGYQQYETSAYAKPGYQCQHNLNYWRFGDYIGIGCGAHGKVTFPDGRILRTTKTRHPRGFMQGRYLESQRDVEATDKPFEFFMNRFRLLEAAPRVEFIAYTGLCEDVIRPQLDEAIAQGYLTECADYWQITEHGKLFLNSLLELFLAE | 4.14 ± 1.6 h | 5.76 ± 2.5 h | 3.734 ± 0.022 h | 8.1 ± 1.6 h | 4.03 ± 0.08 h | 10.4 ± 0.86 h | 4.32 ± 0.36 h | 4.24 ± 0.52 h | 3.01 ± 0.05 h | 4.82 ± 0.96 h | 6.81 ± 0.47 h | 5.41 ± 0.25 h |
| MDLIYFLIDFILHIDVHLAELVAEYGVWVYAILFLILFCETGLVVTPFLPGDSLLFVAGALASLETNDLNVHMMVVLMLIAAIVGDAVNYTIGRLFGEKLFSNPNSKIFRRSYLDKTHQFYEKHGGKTIILARFVPIVRTFAPFVAGMGHMSYRHFAAYNVIGALLWVLLFTYAGYFFGTIPMVQDNLKLLIVGIIVVSILPGVIEIIRHKRAAARAAK [P0ABP6] | 3.68 ± 0.076 h | 3.87 h | 4.71 ± 0.57 h | 9.21 ± 3.2 h | 3.7 ± 0.13 h | 7.57 ± 1.5 h | 3.74 h | 3.148 ± 0.016 h | 2.65 ± 0.21 h | 5.03 ± 0.88 h | 6.2 ± 0.26 h |  |
| MQASQFSAQVLDWYDKYGRKTLPWQIDKTPYKVWLSEVMLQQTQVATVIPYFERFMARFPTVTDLANAPLDEVLHLWTGLGYYARARNLHKAAQQVATLHGGKFPETFEEVAALPGVGRSTAGAILSLSLGKHFPILDGNVKRVLARCYAVSGWPGKKEVENKLWSLSEQVTPAVGVERFNQAMMDLGAMICTRSKPKCSLCPLQNGCIAAANNSWALYPGKKPKQTLPERTGYFLLLQHEDEVLLAQRPPSGLWGGLYCFPQFADEESLRQWLAQRQIAADNLTQLTAFRHTFSHFHLDIVPMWLPVSSFTGCMDEGNALWYNLAQPPSVGLAAPVERLLQQLRTGAPV |  | 5.73 ± 0.018 h | 3.52 ± 0.35 h | 7.51 ± 0.26 h | 4.8 ± 1.8 h | 8.5 ± 0.85 h | 4.02 ± 0.7 h | 3.65 ± 0.12 h | 3.86 h | 4.84 ± 0.14 h | 6.05 h | 4.89 ± 0.49 h |
| MIKSALLVLEDGTQFHGRAIGATGSAVGEVVFNTSMTGYQEILTDPSYSRQIVTLTYPHIGNVGTNDADEESSQVHAQGLVIRDLPLIASNFRNTEDLSSYLKRHNIVAIADIDTRKLTRLLREKGAQNGCIIAGDNPDAALALEKARAFPGLNGMDLAKEVTTAEAYSWTQGSWTLTGGLPEAKKEDELPFHVVAYDFGAKRNILRMLVDRGCRLTIVPAQTSAEDVLKMNPDGIFLSNGPGDPAPCDYAITAIQKFLETDIPVFGICLGHQLLALASGAKTVKMKFGHHGGNHPVKDVEKNVVMITAQNHGFAVDEATLPANLRVTHKSLFDGTLQGIHRTDKPAFSFQGHPEASPGPHDAAPLFDHFIELIEQYRKTAK [P0A6F1] | 4.95 ± 1 h | 4.51 ± 0.39 h | 4.6318 ± 0.0031 h | 9.87 ± 0.035 h | 4.466 ± 0.015 h | 12.1 ± 0.28 h | 4.72 ± 0.13 h | 5.36 ± 0.35 h | 3.18 ± 0.27 h |  | 7.43 ± 0.44 h | 5.95 ± 0.087 h |
| MSESLSWMQTGDTLALSGELDQDVLLPLWEMREEAVKGITCIDLSRVSRVDTGGLALLLHLIDLAKKQGNNVTLQGVNDKVYTLAKLYNLPADVLPR | 6.59 ± 0.72 h |  | 5.75 ± 0.51 h | 10.9 ± 4.8 h | 4.86 ± 0.53 h | 11.9 ± 0.66 h | 6.39 ± 0.34 h | 5.57 ± 0.6 h | 2.98 ± 0.28 h | 5.387 ± 0.018 h | 10.2 h | 5.332 ± 0.016 h |
